Assay results published in publication PMC3546728, “Bacterial Over-Expression and Purification of the 3′phosphoadenosine 5′phosphosulfate (PAPS) Reductase Domain of Human FAD Synthase: Functional Characterization and Homology Modeling” (International Journal of Molecular Sciences, 2012).

Key:
Test in all cases: purified protein
Assay type in all cases: biochemical, Homo sapiens
[1] = test system: T1, Cc1cc2nc3c(=O)[nH]c(=O)nc-3n(C[C@H](O)[C@H](O)[C@H](O)COP(=O)(O)O)c2cc1C; conditions: 100 μM ATP, 5 mM MgCl2, 50 mM Tris/HCl pH 7.5, 37 °C
T1 construct: C-terminal PAPS reductase domain, residues 329-587; vector pH6EX3; E. coli Rosetta (DE3); theoretical 31499 Da, ~28 kDa on SDS-PAGE

O=P(O)(O)OP(=O)(O)O = test system: T2, O=P(O)(O)OP(=O)(O)O; conditions: reverse reaction, 0.5 μM FAD, 5 mM MgCl2, 50 mM Tris/HCl pH 7.5, 37 °C
T2 construct: C-terminal PAPS reductase domain, residues 329-587; vector pH6EX3; E. coli Rosetta (DE3); theoretical 31499 Da, ~28 kDa on SDS-PAGE

[2] = test system: T3, Nc1ncnc2c1ncn2[C@@H]1O[C@H](COP(=O)(O)OP(=O)(O)OP(=O)(O)O)[C@@H](O)[C@H]1O; conditions: 2 μM FMN, 5 mM MgCl2, 50 mM Tris/HCl pH 7.5, 37 °C
T3 construct: C-terminal PAPS reductase domain, residues 329-587; vector pH6EX3; E. coli Rosetta (DE3); theoretical 31499 Da, ~28 kDa on SDS-PAGE

Chain of 6-His-Δ1-328-hFADS (Homo sapiens) (chain, as listed by the source mutant): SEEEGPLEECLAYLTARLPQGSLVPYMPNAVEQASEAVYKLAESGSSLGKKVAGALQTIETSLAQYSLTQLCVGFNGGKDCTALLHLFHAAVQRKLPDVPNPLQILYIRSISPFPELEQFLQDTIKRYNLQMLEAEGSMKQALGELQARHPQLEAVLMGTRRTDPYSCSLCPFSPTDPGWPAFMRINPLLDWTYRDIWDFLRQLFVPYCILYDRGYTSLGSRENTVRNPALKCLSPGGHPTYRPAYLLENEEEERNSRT

For 6-His-Δ1-328-hFADS (Homo sapiens), the Km [1] was 0.24 ± 0.06 µM, the kcat [1] was 0.042 ± 0.001 s⁻¹ and the Km (O=P(O)(O)OP(=O)(O)O) was 92.0 ± 0.5 µM. It also gave a kcat (O=P(O)(O)OP(=O)(O)O) of 0.0037 ± 0.0009 s⁻¹, a Km [2] of 6.23 ± 1.5 µM and a kcat [2] of 0.042 ± 0.001 s⁻¹.
